3 molecules from patent publication US20240092884A1 (CHILDREN S HOSPITAL OF FUDAN UNIVERSITY, published 2024) can be followed below.

The labels stand for the following.
B1: ANGPTL3-FLD-biotin (ligand)
chain: RIDQDNSSFDSLSPEPKSRFAMLDDVKILANGLLQLGHGLKDFVHKTKGQINDIFQKLNIFDQSFYDLSLQTSEIKEEEKELRRTTYKLQVKNEEVKNMSLELNSKLESLLEEKILLQQKVKYLEEQLTNLIQNQPETPEHPEVTSLKTFVEKQDNSIKDLLQTVEDQYKQLNQQHSQIKEIENQLRRTSIQEPTEISLSSKPRAPRTTPFLQLNEIRNVKHDGIPAECTTIYNRGEHTSGMYAIRPSNSQVFHVYCDVISGSPWTLIQHRIDGSQNFNETWENYKYGFGRLDGEFWLGLEKIYSIVKQSNYVLRIELEDWKDNKHYIEYSFYLGNHETNYTLHLVAITGNVPNAIPENKDLVFSTWDHKAKGHFNCPEGYSGGWWWHDECGENNLNGKYNKPRAKSKPERRRGLSWKSQNGRLYSIKSTKMLIHPTDSESFEHHHHHHHHHH
modifications: biotin-labeled (sites not given)
notes: also called ANGPTL3-Biotin; Biotin-ANGPTL3-FLD

For assay [1], the target named is human ANGPTL3 protein (SEQ ID No. 19) (human) (UniProt Q9Y5C1). Briefly: indirect ELISA, negative control supernatant, column A (taken as plate-coated ANGPTL3 of SEQ ID No. 19). A general note: ELISA stands for enzyme-linked immunosorbent assay.
Assay [2] deals with T1, Integrin αvβ3 recombinant protein (R&D, 3050-AV-050) (UniProt P06756 31-992; P05106 27-718).
T1 construct: Bought heterodimer
T1 sequence (P06756 31-992, chain 1 of 2): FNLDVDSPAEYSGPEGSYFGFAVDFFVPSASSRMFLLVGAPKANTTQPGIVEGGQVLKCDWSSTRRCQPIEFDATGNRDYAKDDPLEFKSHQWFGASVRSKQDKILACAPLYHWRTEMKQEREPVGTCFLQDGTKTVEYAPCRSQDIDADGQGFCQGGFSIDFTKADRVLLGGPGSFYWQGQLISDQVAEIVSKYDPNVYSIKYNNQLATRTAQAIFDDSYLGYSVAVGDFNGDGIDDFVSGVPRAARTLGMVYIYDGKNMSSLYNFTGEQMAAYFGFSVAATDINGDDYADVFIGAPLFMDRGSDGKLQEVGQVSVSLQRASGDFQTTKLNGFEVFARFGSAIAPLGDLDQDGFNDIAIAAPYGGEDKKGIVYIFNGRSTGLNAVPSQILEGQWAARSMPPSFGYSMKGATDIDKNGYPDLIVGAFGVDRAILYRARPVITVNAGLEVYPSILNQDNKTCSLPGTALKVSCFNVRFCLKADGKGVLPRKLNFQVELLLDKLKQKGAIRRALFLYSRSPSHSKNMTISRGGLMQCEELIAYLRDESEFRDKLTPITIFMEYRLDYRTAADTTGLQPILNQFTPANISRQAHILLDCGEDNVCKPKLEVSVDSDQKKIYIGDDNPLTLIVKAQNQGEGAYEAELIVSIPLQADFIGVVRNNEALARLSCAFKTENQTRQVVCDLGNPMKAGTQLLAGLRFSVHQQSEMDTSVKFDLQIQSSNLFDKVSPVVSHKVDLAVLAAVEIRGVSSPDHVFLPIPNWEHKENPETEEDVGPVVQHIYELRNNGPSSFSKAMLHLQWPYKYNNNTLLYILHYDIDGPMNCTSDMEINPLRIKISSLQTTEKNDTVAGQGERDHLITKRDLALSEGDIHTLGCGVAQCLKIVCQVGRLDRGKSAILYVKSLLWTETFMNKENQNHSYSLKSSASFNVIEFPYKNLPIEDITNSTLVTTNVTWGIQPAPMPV
T1 sequence (P05106 27-718, chain 2 of 2): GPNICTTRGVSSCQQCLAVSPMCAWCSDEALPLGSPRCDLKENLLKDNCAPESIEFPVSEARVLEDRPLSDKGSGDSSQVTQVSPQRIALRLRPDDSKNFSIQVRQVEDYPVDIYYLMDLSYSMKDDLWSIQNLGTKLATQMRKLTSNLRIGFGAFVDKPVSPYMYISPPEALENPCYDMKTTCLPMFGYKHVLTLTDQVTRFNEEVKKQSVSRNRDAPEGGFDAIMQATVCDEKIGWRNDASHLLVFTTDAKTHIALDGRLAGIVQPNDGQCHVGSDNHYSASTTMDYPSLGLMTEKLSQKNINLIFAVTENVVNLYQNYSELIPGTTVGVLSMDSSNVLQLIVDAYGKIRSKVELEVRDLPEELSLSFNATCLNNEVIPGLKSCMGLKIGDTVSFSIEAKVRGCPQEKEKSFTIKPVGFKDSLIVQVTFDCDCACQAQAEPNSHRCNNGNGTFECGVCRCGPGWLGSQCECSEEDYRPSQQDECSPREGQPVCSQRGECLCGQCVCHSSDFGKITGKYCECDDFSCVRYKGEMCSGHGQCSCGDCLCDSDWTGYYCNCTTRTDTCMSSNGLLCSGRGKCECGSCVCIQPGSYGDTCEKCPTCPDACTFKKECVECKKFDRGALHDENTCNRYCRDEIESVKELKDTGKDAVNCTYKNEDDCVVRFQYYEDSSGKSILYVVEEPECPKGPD
Briefly: ELISA: integrin αvβ3 coated at 1 µg/mL, ANGPTL3-FLD-biotin titrated, detected with peroxidase-labeled streptavidin, OD450. From the text:
(§1) Therefore, in order to evaluate the biological activity of the anti-ANGPTL3 monoclonal antibody, a competitive ELISA experiment was designed to evaluate the activity of the anti-ANGPTL3 monoclonal antibody blocking the interaction between ANGPTL3-FLD and integrin αvβ3. In the competitive experiment of the anti-ANGPTL3 monoclonal antibody blocking the interaction between ANGPTL3-FLD and integrin αvβ3, ANGPTL3-FLD was biotin-labeled, and the lowest saturated concentration of ANGPTL3-FLD-biotin binding to integrin αvβ3 was determined as 0.16 μg/mL by ELISA (as shown in FIG. 3A). The anti-ANGPTL3 monoclonal antibody was serially diluted with 0.16 μg/mL ANGPTL3-FLD-biotin solution as a diluent to obtain a series of concentrations. Theoretically, ANGPTL3-FLD-biotin can saturate integrin αvβ3 on a solid support in the absence of monoclonal antibody. However, when the epitope of ANGPTL3-FLD recognized by the monoclonal antibody overlaps with the epitope of ANGPTL3-FLD binding to integrin αvβ3, the antibody may compete with integrin αvβ3 for binding to ANGPTL3-FLD-biotin, so that ANGPTL3-FLD-biotin cannot bind to integrin αvβ3 on the solid support.
1. Plot a Curve of the Binding of Integrin αvβ3/ANGPTL3 [0093] […]

Assay [3] has as its target T2, human ANGPTL3 protein (SEQ ID No. 19) (human, UniProt Q9Y5C1 18-460, limits assumed).
T2 construct: also called ANGPTL3-FLD; protein (immunogen)
T2 sequence: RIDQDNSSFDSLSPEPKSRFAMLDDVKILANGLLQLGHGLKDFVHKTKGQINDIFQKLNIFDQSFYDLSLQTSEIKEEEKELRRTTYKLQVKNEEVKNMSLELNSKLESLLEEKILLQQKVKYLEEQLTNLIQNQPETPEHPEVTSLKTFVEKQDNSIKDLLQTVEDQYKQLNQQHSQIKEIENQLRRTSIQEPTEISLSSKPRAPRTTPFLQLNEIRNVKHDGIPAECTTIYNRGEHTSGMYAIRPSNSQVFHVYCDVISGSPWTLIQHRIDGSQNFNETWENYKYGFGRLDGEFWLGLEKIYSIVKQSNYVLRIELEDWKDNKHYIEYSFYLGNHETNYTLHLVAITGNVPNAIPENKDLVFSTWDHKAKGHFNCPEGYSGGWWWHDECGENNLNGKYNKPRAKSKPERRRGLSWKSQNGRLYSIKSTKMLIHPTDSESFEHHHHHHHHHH
As to the kind of experiment: SPR, Biacore T200, ANGPTL3 amine-coupled on a CM5 chip (852 RU), antibody injected at 6.25-800 nM, 25 °C, HBS-EP. Here is the method: Angptl3 was immobilized on a CM5 sensor chip (Biacore T200, BR18010468 (GE Healthercare)) at 25° C. with HBS-EP as a running buffer (10 mM HEPES, 150 mM NaCl, 3 mM EDTA, 0.05% P20, pH 7.4). Flow cells 1 and 4 were activated on the surface of the sensor chip with fresh and mixed NHS (50 mmol/L) and EDC (200 mmol/L) for 420 s (10 μL/min). Then, Angptl3 diluted in 10 mmol/L NaAC (pH 5.0) waccording tojected into the flow cell 4 to achieve binding of about 852 Response Unit. In addition, Fc1 was set to blank. After the amine coupling reaction, 1 mol/L ethanolamine hydrochloride (pH 8.5) waccording tojected for 420 s to block the remaining active coupling sites on the chip surface.
The detection was carried out at 25° C. with HBS-EP as a running buffer. The anti-ANGPTL3 monoclonal antibody (prepared in Example 2) waccording tojected onto the surfaces of flow cells 1, 2, 3, and 4 as an association stage, and then the running buffer waccording tojected as a dissociation stage.
All data were processed using Biacore T200 evaluation software version 3.1. The flow cell 1 was used as a double reference for the subtractive response unit. For the detection results of the affinity of the anti-ANGPTL3 antibody to the ANGPTL3 protein, refer to FIG. 2.

The assay “ANGPTL3-FLD-biotin” addresses B1. As to the kind of experiment: competitive ELISA: antibody titrated in 0.16 µg/mL ANGPTL3-FLD-biotin, blocking its binding to plate-coated integrin αvβ3.
Text: as §1, with “Integrin αvβ3 is a key receptor for ANGPTL3-FLD to act on podocytes and mediate podocyte damage. Therefore,” for “Therefore,”
2. Detect a Half-Maximal Inhibitory Concentration of Anti-ANGPTL3-FLD mAb [0098] […]

In turn, Negative Control Supernatant displayed an OD 450 in assay [1] of 0.195 OD450.

As a reminder, the EC50 (read off the curve) is the concentration at which the effect is half-maximal. B1: the “EC50 (read off the curve)” value in assay [2] was roughly 0.01 µg/mL.

B2: anti-ANGPTL3 monoclonal antibody (prepared in Example 2) (antibody, IgG1, V domains shown)
VH: QVQLKESGPGLVAPSQSLSITCTVSGFSLTTYGVSWVRQPPGKGLEWLGVIWGDGNTNYHSALISRLSISKDNSKSQVFLKLNSLQTDDTATYYCAKGGPYGNYVPFDYWGQGTTLTVSS
VL: DIVLTQSPASLAVSLGQRATISCRASESVDSYGNSFMHWYQQKPGQPPKLLIYRASNLESGIPARFSGSGSRTDFTLTINPVEADDVATYYCQQSDEEPPTFGGGTNLEIK
notes: Recombinant antibody expressed transiently in ExpiCHO-S cells; also called anti-ANGPTL3-FLD mAb; mAb
The term Kd denotes the constant that tells how readily two partners part at equilibrium. High values mean lower affinity, low ones higher affinity. For orientation: koff means the rate constant with which the complex falls apart. In general, kon refers to the rate constant with which the complex forms. Usually EC50 stands for the concentration giving half of the maximal effect. For the molecule B2, in assay [3], the Kd was determined as 84.8 nM, the koff is 0.00142 s⁻¹ and the kon was found to be 16700 M⁻¹ s⁻¹. Besides, the midpoint of the response with ANGPTL3-FLD-biotin, the EC50, lay at 1.57 µg/mL.
